From the supplement of paper PMC10724198
± gives the standard deviation of the averaged measurements.

Tested on: Saccharomyces cerevisiae
Experiment: protein stability index of tFT-peptide fusion (C-terminal peptide) (PSI (0-1 scale)); higher = more stable (slower turnover)
Conditions: temperature: 30 C
Description: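 MPS profiling in S. cerevisiae of the yeast C-terminome library: the last 12 aa of each annotated ORF are fused to the C-terminus of a sfGFP-mCherry timer, after a GGGS linker. Cells are FACS-sorted into 8 mCherry/sfGFP bins and deep-sequenced. PSI runs from 0 (unstable) to 1 (stable); wild type and das1Δ backgrounds, two technical replicates each.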

[1] = genetic background: das1 deletion

Sequence	protein stability index [1]	protein stability index (genetic background: wild type)
KRLHQLDGIPHA [MEO1 C-terminal 12 aa]	0.703 ± 0.0079	0.6852 ± 0.0018
ASPTCTPQNPCV [CAB4 C-terminal 12 aa]	0.706 ± 0.021	0.735 ± 0.062
WFICRMLSKVTL [YNR003W-A C-terminal 12 aa]	0.609 ± 0.012	0.595 ± 0.012
YGRGETPKHAIE [DPH1 C-terminal 12 aa]	0.692 ± 0.0084	0.713 ± 0.062
LAQQLQQDSEAS [SWC5 C-terminal 12 aa]	0.699 ± 0.039	0.701 ± 0.0092
FASNKKVTASLR [AZR1 C-terminal 12 aa]	0.696 ± 0.013	0.6868 ± 0.00086
PMIENLRFPNAR [YEH2 C-terminal 12 aa]	0.688 ± 0.023	0.7039 ± 0.0046
AQQNYRLWLSSV [ATG41 C-terminal 12 aa]	0.682 ± 0.016	0.3264 ± 0.0023
LCHYLTPYMIIY [YOL106W C-terminal 12 aa]	0.456 ± 0.016	0.45 ± 0.011
KSLETFRTTNTL [FBA1 C-terminal 12 aa]	0.69 ± 0.011	0.7271 ± 0.0061
KTDKVLYKRNGY [HPA3 C-terminal 12 aa]	0.687 ± 0.02	0.675 ± 0.065
AKDAFTSTLPTH [GFD2 C-terminal 12 aa]	0.7 ± 0.017	0.716 ± 0.021
KRRIEEIQMLFE [RAD5 C-terminal 12 aa]	0.7081 ± 0.0032	0.683 ± 0.036
HNLESLVVAFNE [SPO16 C-terminal 12 aa]	0.6872 ± 0.003	0.717 ± 0.064
AINYIGNIRRNE [ACO2 C-terminal 12 aa]	0.7288 ± 0.0043	0.727 ± 0.048
KKKEDKGGLQRS [VHS3 C-terminal 12 aa]	0.6842 ± 0.0022	0.697 ± 0.061
ERLRFYKDTFTL [RRI1 C-terminal 12 aa]	0.726 ± 0.0089	0.653 ± 0.011
DSQHKHDYSHSG [DCK1 C-terminal 12 aa]	0.6787 ± 0.0061	0.715 ± 0.035
SQSCPFFPLMDD [YDR246W-A C-terminal 12 aa]	0.738 ± 0.012	0.7463 ± 0.0073
GMLYALYIVLQD [PMP3 C-terminal 12 aa]	0.301 ± 0.0097	0.32 ± 0.0081
RFIRTANKKDYL [IMP4 C-terminal 12 aa]	0.671 ± 0.0071	0.7335 ± 0.0025

Sequence	protein stability index [1]	protein stability index (genetic background: wild type)
KKSPGGPRQRIK [MAP1 C-terminal 12 aa]	0.694 ± 0.033	0.692 ± 0.046
ADIMEKVHKWFA [PSE1 C-terminal 12 aa]	0.68931 ± 0.00046	0.6649 ± 0.0041
ESISYLFKNYPL [PRS3 C-terminal 12 aa]	0.717 ± 0.015	0.6937 ± 0.0036
PADIDKYIIQRK [FMP46 C-terminal 12 aa]	0.7015 ± 0.0048	0.672 ± 0.029
IFMCIILANKHF [YFR052C-A C-terminal 12 aa]	0.342 ± 0.02	0.22 ± 0.009
LILHFVCLHFIN [OST2 C-terminal 12 aa]	0.544 ± 0.017	0.184 ± 0.027
LFFLVGLQLAIP [YGR022C C-terminal 12 aa]	0.324 ± 0.002	0.327 ± 0.0074
TISRLPPRSWTN [YCL042W C-terminal 12 aa]	0.717 ± 0.037	0.739 ± 0.015
PLNDQVCPNSPL [YLR154W-F C-terminal 12 aa]	0.7273 ± 0.0053	0.694 ± 0.033
SKLVKEYSVELR [MSF1 C-terminal 12 aa]	0.687 ± 0.019	0.663 ± 0.05
VVYRHLHTKVSK [HAL5 C-terminal 12 aa]	0.682 ± 0.0075	0.658 ± 0.0043
KGARSRFQKSYR [RPS16A C-terminal 12 aa]	0.707 ± 0.011	0.7188 ± 0.0055
TVNYNDKTISGN [VPS30 C-terminal 12 aa]	0.689 ± 0.022	0.692 ± 0.055
EQFTRDFGQEGN [VPS4 C-terminal 12 aa]	0.7187 ± 0.0015	0.671 ± 0.016
LRSKSRLRGSHT [AHC1 C-terminal 12 aa]	0.73 ± 0.014	0.654 ± 0.038
IYKLEYYLLTMQ [YOR199W C-terminal 12 aa]	0.574 ± 0.011	0.526 ± 0.034
FRGKLFLDSITD [MLC2 C-terminal 12 aa]	0.724 ± 0.0085	0.73 ± 0.034
VVCMVVLLAVLS [VAM3 C-terminal 12 aa]	0.148 ± 0.018	0.171 ± 0.012
MITCLTAALKLN [AVT6 C-terminal 12 aa]	0.6868 ± 0.0041	0.174 ± 0.0018
SVFGEAEEVTNW [MET2 C-terminal 12 aa]	0.701 ± 0.017	0.702 ± 0.031
